The target in assay [1] is CLDN18.2 endogenously expressed on SNU620 gastric cancer cells (UniProt P56856). The assay can be described thus: FACS Exp. 3, SNU620 cells.
The target in assay [2] is T1, human Claudin 18.2 (CLDN18.2) (human, UniProt P56856-2 1-261). Kind of assay: FACS Exp. 1, MFI ratio CHO-18.2 over CHO-18.1.
Assay [3] has as its target T1, human Claudin 18.2 (CLDN18.2). Kind of assay: FACS Exp. 2, MFI ratio CHO-18.2 over CHO-18.1.
Assay [4] shares this target. Kind of assay: cell-based or functional assay.
Assay [5] shares this target. The assay can be described thus: cell-based or functional assay. This is another data set of the same source.
The target is the same in assay [6]. Kind of assay: cell-based or functional assay. This is another data set of the same source.
Assay [7] shares this target. The assay can be described thus: cell-based or functional assay. The source holds these as a separate data set.
The target is the same in assay [8]. Kind of assay: FACS on CHO-CLDN18.2 cells.
The target is the same in assay [9]. The assay can be described thus: FACS on CHO-CLDN18.2 cells. The source holds these as a separate data set.
For assay [10] the target is unchanged. Kind of assay: FACS on CHO-CLDN18.2 cells. This is another data set of the same source.
Assay [11] has the same target. Kind of assay: FACS. In general terms: In flow cytometry, cells or beads pass a laser one at a time.
The target of assay [12] is T2, CLDN18.2 endogenously expressed on SNU620 gastric cancer cells (UniProt P56856-2 1-261, limits assumed).
T2 construct: whole, on cells; also called SU620
Kind of assay: FACS Exp. 3, SNU620 cells.

Assay [13] has as its target T1, human Claudin 18.2 (CLDN18.2). Kind of assay: cell-based or functional assay. The source holds these as a separate data set.
For assay [14] the target is unchanged. Kind of assay: cell-based or functional assay. This is another data set of the same source.

Changes are numbered by the printed parent chain. In names and notes the source's numbering stands. Where two headings read alike, the source gives them in different places.

human IgG1 isotype control (antibody) yielded an MFI SNU620 (@30 ug/ml) in assay [1] of 15.7 MFI. Also, the MFI CHO-18.2/CHO-18.1 (@30 ug/ml) was found to be 1.1 in assay [2] and 1 in assay [3].

B1: reference antibody 175D10 (xi175D10) (antibody, human IgG1, kappa, V domains shown)
VH: QVQLQQPGAELVRPGASVKLSCKASGYTFTSYWINWVKQRPGQGLEWIGNIYPSDSYTNYNQKFKDKATLTVDKSSSTAYMQLSSPTSEDSAVYYCTRSWRGNSFDYWGQGTTLTVSS
VL: DIVMTQSPSSLTVTAGEKVTMSCKSSQSLLNSGNQKNYLTWYQQKPGQPPKLLIYWASTRESGVPDRFTGSGSGTDFTLTISSVQAEDLAVYYCQNDYSYPFTFGSGTKLEIKR
notes: Fc variant D356/L358; also called chimeric 175D10
In the case of B1, the “ADCC EC50, NCI-N87-18.2 cells, FcR-TANK effectors” value (“ADCC EC50, NCI-N87-18.2 cells” below) in assay [4] was 96.4 nM. In assay [5], the “% specific cytotoxicity @ 6.67 nM, NUGC4-CLDN18.2, PBMC” value (“% specific cytotoxicity @ 6.67 nM” below) stood at 16.8%. Besides, the “ADCC EC50, NUGC4-CLDN18.2 cells, PBMC” value in [5] is 9.21 nM. Also, in assay [6], the “% ADCC @ 6.67 nM, NCI-N87-CLDN18.2, FcR-TANK” value (shortened to “% ADCC @ 6.67 nM”) was determined as 11.9%. Besides, the “CDC EC50, human serum, CHO-CLDN18.2” value in [7] was found to be 2.26 nM. In addition, the figures for the half-maximal effective concentration (EC50) in assay [8], in [9] and in assay [10] were 9.32 nM, 7.52 nM and 7.24 nM, respectively. In addition, the “MFI_CHO-18.2/CHO-18.1 (@30 ug/ml)” value is 1030 in [2] and 1390 in assay [3].

B2: 364D1A7-VL-S32V (antibody, human IgG1, kappa, V domains shown)
VH: DVQLVESGGGLVQPGGSRKLSCAASGFTFSSFGMHWVRQAPEKGLEWVAYISSGSGSIYYADTVKGRFTLSRDNPKNTLFLQMTSLRSEDTAIYYCATSYYYGNALEYWGQGTSVTVSS
VL: DVVLTQSPSSLTVTEGEKVSMSCKSSQSLFNVGNQKNYLTWYQQKPGQTPTLLIYWASTRKSGVPDRFTGSGSGTDFTLTINTVQAEDLAVYYCQNVYSYPLTFGAGTKLDLKR
notes: chimeric human IgG1, PTM site removed; also called 364D1A7-VL-32V
Take B2: in [4], the “ADCC EC50, NCI-N87-18.2 cells” value worked out at 12 nM. Moreover, in [5], the “% specific cytotoxicity @ 6.67 nM” value turned out to be 26.6% and the “ADCC EC50, NUGC4-CLDN18.2 cells, PBMC” value came out at 6.36 nM. In addition, in [6], the “% ADCC @ 6.67 nM” value worked out at 15.3% and the “ADCC EC50, NCI-N87-CLDN18.2, FcR-TANK” value was found to be 0.34 nM. Besides, in assay [7], the “CDC EC50, human serum, CHO-CLDN18.2” value was 1.49 nM. The same molecule gave an EC50 in assay [10] of 3.87 nM.

B3: 364D1A7-VL-N31E (antibody, human IgG1, kappa, V domains shown)
VH: B2 VH
VL: B2 VL with N31E, V32S
notes: chimeric human IgG1, PTM site removed
In the case of B3, the binding result in assay [11] was “binds”.

B4: hz282-1 (antibody, V domains shown)
VH: QVQLQESGPGLVKPSETLSLTCTVSGFSLTSYNVYWIRQPPGKGLEWIGVIWNTGATRYNSALKSRVTISVDTSKNQFSLKLSSVTAADTAVYYCARDSAMPAIPFAYWGQGTLVTVSS
VL: DIVMTQSPDSLAVSLGERATINCKSSQSLFGSVRQKNYLAWYQQKPGQPPKLLIYLASTRESGVPDRFSGSGSGTDFTLTISSLQAEDVAVYYCQQYYDIPWTFGGGTKVEIK
notes: humanized IgG; constant regions not specified; also called hz282-l
Turning to B4, the MFI SNU620 (@30 ug/ml) in assay [1] worked out at 69.6 MFI. In addition, the “MFI_CHO-18.2/CHO-18.1 (@30 ug/ml)” value in assay [2] was 262.

B5: hz282-5 (antibody, V domains shown)
VH: B4 VH
VL: B4 VL with P49S, V91K
notes: humanized IgG; constant regions not specified
In turn, B5 gave an MFI SNU620 (@30 ug/ml) in [1] of 135 MFI. For the same molecule, in [2], the “MFI_CHO-18.2/CHO-18.1 (@30 ug/ml)” value turned out to be 310.

B6: hz282-9 (antibody, V domains shown)
VH: B4 VH
VL: DIQMTQSPSSLSASVGDRVTITCKSSQSLFGSVRQKNYLAWYQQKPGKAPKLLIYLASTRESGVPSRFSGSGSGTDFTLTISSLQPEDFATYYCQQYYDIPWTFGGGTKVEIK
notes: as for B5
As to B6, the MFI SNU620 (@30 ug/ml) in assay [1] was 308 MFI. Besides, in assay [2], the “MFI_CHO-18.2/CHO-18.1 (@30 ug/ml)” value amounted to 163.

B7: hz282-13 (antibody, V domains shown)
VH: B4 VH
VL: B6 VL with A49S, S66D, T91K
notes: as for B5
As to B7, the MFI SNU620 (@30 ug/ml) in assay [1] was 144 MFI. Besides, the “MFI_CHO-18.2/CHO-18.1 (@30 ug/ml)” value in [2] came out at 201.

B8: hz282-17 (antibody, V domains shown)
VH: B4 VH
VL: B6 VL with Q3V, T22N, A49S, S66D, T91K
notes: as for B5
Take B8: in assay [1], the MFI SNU620 (@30 ug/ml) is 176 MFI. Further, in assay [2], the “MFI_CHO-18.2/CHO-18.1 (@30 ug/ml)” value stood at 249.

B9: 413H9F8-VL-S32V (antibody, human IgG1, kappa, V domains shown)
VH: DVQLVESGGGSVQPGGSRRLSCAASGFTFSSFGMHWVRQAPEKGLEWVAYISSGSSPIYYVDKLKGRFTVSRDNPKNTLFLQMTSLRSEDTAMYYCARAGYAVRNALDYWGQGTSITVSS
VL: DIVMTQSPSSLSVSVGEKVTLSCKSSQSLLNVGNQKNYLAWYQQKTGQPPKLLIYGASTRESGVPDRFIGSGSGTDFTLTISSVQAEDLAVYFCQNDLFYPLTFGAGTKLELKR
notes: chimeric human IgG1, PTM site removed; also called 413H9F8-VL-32V; 413H9F8-VL-532V
Turning to B9, the “ADCC EC50, NCI-N87-18.2 cells” value in [4] is 7.84 nM. In [5], the “% specific cytotoxicity @ 6.67 nM” value turned out to be 31.4% and the “ADCC EC50, NUGC4-CLDN18.2 cells, PBMC” value stood at 7.69 nM. Besides, in assay [6], the “% ADCC @ 6.67 nM” value turned out to be 13.9% and the “ADCC EC50, NCI-N87-CLDN18.2, FcR-TANK” value is 0.33 nM. For the same molecule, in assay [7], the “CDC EC50, human serum, CHO-CLDN18.2” value came to 0.76 nM. Besides, a half-maximal effect in assay [8] (EC50) was put at 1.84 nM. For the same molecule, the half-maximal effective concentration (EC50) in [9] worked out at 2.14 nM.

B10: 413H9F8-VL-N31E (antibody, human IgG1, kappa, V domains shown)
VH: B9 VH
VL: B9 VL with N31E, V32S
notes: as for B3
Take B10: in assay [11], the binding result is recorded as “binds”.

B11: 282A12F3 (T62A) (antibody, human IgG1, kappa, V domains shown)
VH: QVQLKESGPVLVQPSQTLSLTCTVAGFSLTSYNVYWVRQPPGKGLEWMGVIWNTGATRYNSALKSRLSISKDTSKSQVFLKMNSLQTEDTATYYCARDSAMPAIPFAYWGQGTLVTVSS
VL: DIVMTQSPSSLAVSAGETVTINCKSSQSLFGSVRQKNYLAWYQQKPGQSPKLLIYLASTRESGVPDRFIGSGSGTDFTLTISSVQAEDLAKYYCQQYYDIPWTFGGGTKLELKR
notes: chimeric human IgG1, PTM site removed; also called 282A12F3-VH-NSA (T62A); 282A12 (T62A)
For the molecule B11, in assay [4], the “ADCC EC50, NCI-N87-18.2 cells” value came out at 73.2 nM. For the same molecule, in assay [5], the “% specific cytotoxicity @ 6.67 nM” value was determined as 21% and the “ADCC EC50, NUGC4-CLDN18.2 cells, PBMC (1 donor)” value came to 9.52 nM. Moreover, in assay [6], the “% ADCC @ 6.67 nM” value is 14.6% and the “ADCC EC50, NCI-N87-CLDN18.2, FcR-TANK” value stood at 2.25 nM. Moreover, the “CDC EC50, human serum, CHO-CLDN18.2” value in assay [7] amounted to 10.4 nM. Further, the “MFI_SNU620 (@30 ug/ml)” value in assay [12] stood at 1520 MFI. The molecule further yielded a concentration for a half-maximal effect (EC50) in [8] of 4.45 nM. For the same molecule, the “MFI_CHO-18.2/CHO-18.1 (@30 ug/ml)” value in [2] is 811. Also, in [3], the “MFI_CHO-18.2/CHO-18.1 (@30 ug/ml)” value is 768.

B12: 282A12F3-VH-N60Q (antibody, human IgG1, kappa, V domains shown)
VH: B11 VH with N60Q, A62T
VL: B11 VL
notes: as for B3
On to B12, for which, in [11], the binding result is listed as “binds”.

B13: 282A12F3-VH-N60E (antibody, human IgG1, kappa, V domains shown)
VH: B11 VH with N60E, A62T
VL: B11 VL
notes: as for B3
Regarding B13, in assay [11], the binding result is “binds”.

B14: 413H9F8-H2L2 (antibody, V domains shown)
VH: EVQLVESGGGLVQPGGSLRLSCAASGFTFSSFGMHWVRQAPGKGLEWVAYISSGSSPIYYVDKLKGRFTISRDNAKNSLYLQMNSLRAEDTAVYYCARAGYAVRNALDYWGQGTLVTVSS
VL: DIVMTQSPDSLAVSLGERATINCKSSQSLLNVGNQKNYLAWYQQKPGQPPKLLIYGASTRESGVPDRFSGSGSGTDFTLTISSLQAEDVAVYFCQNDLFYPLTFGGGTKVEIK
notes: as for B5
For the molecule B14, in [6], the “% ADCC @ 6.67 nM” value was 13.7% and the “ADCC EC50, NCI-N87-CLDN18.2, FcR-TANK” value is 0.33 nM. Besides, in [13], the “% specific cytotoxicity @ 6.67 nM” value turned out to be 33.2% and the “ADCC EC50, NUGC4-CLDN18.2, PBMC” value amounted to 6.14 nM. In addition, the “ADCC EC50, NUGC4-CLDN18.2, PBMC” value in assay [14] was 0.48 nM. Further, the “CDC EC50, human serum, CHO-CLDN18.2” value in assay [7] was determined as 0.84 nM. Also, the EC50 in assay [9] amounted to 1.97 nM.

B15: 413H9F8-H2L2-MG-DL (antibody, V domains shown)
VH: B14 VH
VL: B14 VL
Regarding B15, the “ADCC EC50, NUGC4-CLDN18.2, PBMC” value in assay [14] came out at 0.0046 nM.

B16: 413H9F8-H2L2-V2-DL (antibody, V domains shown)
VH: B14 VH
VL: B14 VL
Regarding B16, the “ADCC EC50, NUGC4-CLDN18.2, PBMC” value in [14] turned out to be 0.0148 nM.

A word on the EC50: it is the concentration giving half of the maximal effect. Read a high EC50 as weaker potency.

Values taken from patent US20210380680A1 (ZLLP, published 2021).
